Assay [1] deals with T1, GPC3 (Homo sapiens, UniProt P51654). The assay is described as follows: Binding to GPC3-expressing cells by FACS. Details: endogenous in cells. The text has this:
(§1) Positive clones were expanded and re-screened for binding to huGPC3, cynoGPC3, and HepG2 cells by ELISA, FACS, and immunohistochemistry (IHC). Thirteen antibodies were selected and purified, including antibodies 7H1 and 4G7. The heavy and light chain variable region sequences of antibody 7H1 are shown in SEQ ID NOs: 2 and 3, respectively. The heavy and light chain variable region sequences of antibody 4G7 are shown in SEQ ID NOs: 26 and 27, respectively.
(§2) Antibody 7H1 also detects human, cynomolgus monkey, rat, and mouse GPC3 by Western blot.
Target sequence in this assay (P51654 25-554): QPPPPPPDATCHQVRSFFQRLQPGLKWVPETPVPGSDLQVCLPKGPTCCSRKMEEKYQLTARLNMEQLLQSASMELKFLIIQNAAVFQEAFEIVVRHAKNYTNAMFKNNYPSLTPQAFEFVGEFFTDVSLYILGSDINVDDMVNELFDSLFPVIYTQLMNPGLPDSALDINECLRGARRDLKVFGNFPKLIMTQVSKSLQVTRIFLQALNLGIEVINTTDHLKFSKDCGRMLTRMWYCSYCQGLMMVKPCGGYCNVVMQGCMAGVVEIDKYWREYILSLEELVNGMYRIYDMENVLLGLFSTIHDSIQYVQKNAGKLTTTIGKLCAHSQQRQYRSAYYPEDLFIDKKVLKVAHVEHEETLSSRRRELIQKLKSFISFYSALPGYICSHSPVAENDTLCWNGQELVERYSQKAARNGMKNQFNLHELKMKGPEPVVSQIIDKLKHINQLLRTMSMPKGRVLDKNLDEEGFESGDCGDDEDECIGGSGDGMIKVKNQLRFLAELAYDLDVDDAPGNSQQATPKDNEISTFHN
On the technique in general: Flow cytometry measures light scatter and fluorescence of single cells or particles in a stream.

The next assay concerns the target biotinylated GPC3 (Homo sapiens, UniProt P51654). The assay is described as follows: Epitope binning competition assay (Octet RED384). The conditions noted are these: 7H1 or 4G7 as first saturating antibody 10 μg/ml; competing antibodies 5 μg/ml. It counts as binding. On the procedure:
Epitope binning of anti-GPC3 antibodies was performed using a competition assay. Using the Octet RED384 instrument (ForteBio), biotinylated GPC3 was captured onto Streptavidin biosensors at 10 μg/ml for 600 seconds. Binding of the first antibody to saturation was achieved by adding 10 μg/ml for 600 seconds. The same biosensors were dipped into the competing antibodies at 5 μg/ml and binding was measured for 600 seconds. […] Antibody 7H1 was used as the first saturating antibody. A subsequent experiment was performed using antibody 4G7 as the first saturating antibody.
For orientation: Biolayer interferometry detects binding as a change in optical thickness at a sensor tip.

A further assay concerns the target T2, human GPC3 (Homo sapiens, UniProt P51654).
T2 construct: C-terminal glycophosphatidylinositol anchor (GPI link) (C); expressed in transfected cells; host or cells: 293S cells, transient
T2 sequence (P51654 359-560): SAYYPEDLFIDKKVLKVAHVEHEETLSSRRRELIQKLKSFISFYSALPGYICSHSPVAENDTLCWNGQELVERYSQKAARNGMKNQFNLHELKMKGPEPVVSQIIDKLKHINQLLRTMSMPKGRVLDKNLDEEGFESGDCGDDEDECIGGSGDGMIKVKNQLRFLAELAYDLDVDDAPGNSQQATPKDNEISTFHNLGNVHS
Kind of assay: FACS binding to human GPC3 fragments expressed on 293S cells. The settings on record: C-terminal fragment, amino acids 359-560 of human GPC3, on 293S cells. The text has this: (§3) C-terminal truncation constructs of human GPC3 were made to further refine the epitopes for antibodies 7H1 and 4G7. […] The three C-terminal truncations each comprised the GPC N-terminal signal sequence (SS) and C-terminal glycophosphatidylinositol anchor (GPI link). […] See FIG. 7 (Santa Cruz Biotechnology antibody 1G12, which was raised to amino acids 511-580 of human GPC3, was used as a positive control for C-terminal fragment binding). Antibody 7H1 was reformatted as a chimeric antibody with human A118C cysteine-engineered IgG1 and Igκ constant regions (SEQ ID NOs: 42 and 43).

Assay [2] has as its target T1, GPC3. Described as above. Details: C-terminal glycophosphatidylinositol anchor (GPI link) (C); expressed in transfected cells; host or cells: 293S cells, transient.
Source text: as §3

The target of assay [3] is T1, GPC3. The assay is described as follows: Western blot binding to C-terminal truncation constructs of human GPC3. Details: C-terminal glycophosphatidylinositol anchor (GPI link) (C); expressed in transfected cells; host or cells: 293S cells, transient.
Source text: as §3
In general terms: Immunoblotting shows a protein as a band on a membrane.

The target in assay [4] is T1, GPC3. The assay is described as follows: Western blot detection of human GPC3. It is filed as binding.
Source text: as §2
Target sequence in this assay (P51654 25-554): as the sequence (P51654 25-554) above

In the next assay the target is rat GPC3 (Rattus norvegicus, UniProt P13265). Kind of assay: Western blot detection of rat GPC3. It is filed as binding.
Source text: as §2

Assay [5] concerns the target T1, GPC3. The assay is described as follows: Reactivity by immunohistochemistry (IHC). It counts as binding. Set-up: endogenous in cells.
Source text: as §1, §2
Target sequence in this assay (P51654 25-554): as the sequence (P51654 25-554) above

Another assay has as its target mouse GPC3 (Mus musculus, UniProt Q8CFZ4). Kind of assay: Western blot detection of mouse GPC3. It is filed as binding.
Source text: as §2

Another assay has as its system cynomolgus monkey GPC3. Kind of assay: Western blot detection of cynomolgus monkey GPC3. It is filed as binding.
Source text: as §2

The mark [6] stands for this setting: N-terminal fragment, amino acids 25 to 358 of human GPC3, on 293S cells.

Chain of biotinylated GPC3 (P51654 25-554): as the sequence (P51654 25-554) above
Chain of mouse GPC3 (Q8CFZ4 25-553): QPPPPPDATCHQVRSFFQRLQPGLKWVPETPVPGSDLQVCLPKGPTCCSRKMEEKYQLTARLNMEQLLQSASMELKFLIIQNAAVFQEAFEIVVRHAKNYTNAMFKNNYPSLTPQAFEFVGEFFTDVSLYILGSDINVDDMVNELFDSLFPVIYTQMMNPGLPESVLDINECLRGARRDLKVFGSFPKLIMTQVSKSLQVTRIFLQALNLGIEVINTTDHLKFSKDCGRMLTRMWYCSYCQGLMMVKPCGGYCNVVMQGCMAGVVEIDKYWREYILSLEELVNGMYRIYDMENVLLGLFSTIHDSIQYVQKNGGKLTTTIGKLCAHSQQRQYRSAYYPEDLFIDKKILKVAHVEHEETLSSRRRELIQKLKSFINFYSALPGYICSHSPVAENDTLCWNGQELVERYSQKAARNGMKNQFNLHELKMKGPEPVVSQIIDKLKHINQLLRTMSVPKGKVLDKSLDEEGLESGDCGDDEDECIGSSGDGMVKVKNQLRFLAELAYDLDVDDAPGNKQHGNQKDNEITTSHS
Chain of cynomolgus monkey GPC3 (as listed by the source): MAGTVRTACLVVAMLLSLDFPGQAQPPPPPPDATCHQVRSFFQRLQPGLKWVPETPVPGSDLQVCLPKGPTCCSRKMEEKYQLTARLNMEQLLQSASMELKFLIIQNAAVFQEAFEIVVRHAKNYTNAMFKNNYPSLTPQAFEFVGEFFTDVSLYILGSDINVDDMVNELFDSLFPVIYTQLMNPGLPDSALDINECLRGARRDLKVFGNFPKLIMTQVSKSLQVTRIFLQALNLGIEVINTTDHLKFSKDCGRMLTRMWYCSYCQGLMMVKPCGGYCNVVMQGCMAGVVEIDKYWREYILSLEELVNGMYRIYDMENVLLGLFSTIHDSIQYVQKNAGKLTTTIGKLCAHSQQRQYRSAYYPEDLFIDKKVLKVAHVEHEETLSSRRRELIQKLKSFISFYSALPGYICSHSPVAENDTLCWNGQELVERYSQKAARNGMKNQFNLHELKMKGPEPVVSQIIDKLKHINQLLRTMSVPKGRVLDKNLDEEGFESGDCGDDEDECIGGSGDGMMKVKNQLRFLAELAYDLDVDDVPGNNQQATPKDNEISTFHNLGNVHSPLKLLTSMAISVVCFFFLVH
Chain of rat GPC3 (P13265 with tags, fused parts or gaps limits assumed): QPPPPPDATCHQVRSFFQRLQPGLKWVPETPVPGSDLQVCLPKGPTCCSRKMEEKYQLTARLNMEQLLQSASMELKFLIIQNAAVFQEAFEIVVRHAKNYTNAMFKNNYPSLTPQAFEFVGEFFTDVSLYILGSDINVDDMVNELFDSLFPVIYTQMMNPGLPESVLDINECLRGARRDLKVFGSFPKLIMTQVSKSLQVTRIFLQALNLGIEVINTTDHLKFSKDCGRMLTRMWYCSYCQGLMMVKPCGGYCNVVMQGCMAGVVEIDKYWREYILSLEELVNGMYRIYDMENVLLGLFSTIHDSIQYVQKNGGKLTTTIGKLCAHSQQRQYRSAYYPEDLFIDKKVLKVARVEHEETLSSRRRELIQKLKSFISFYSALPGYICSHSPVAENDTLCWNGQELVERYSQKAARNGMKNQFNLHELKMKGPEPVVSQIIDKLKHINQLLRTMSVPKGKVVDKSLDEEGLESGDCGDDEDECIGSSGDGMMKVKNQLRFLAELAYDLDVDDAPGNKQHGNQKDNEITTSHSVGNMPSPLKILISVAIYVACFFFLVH

B1: 4G7: anti-GPC3 monoclonal antibody; heavy and light chain variable regions SEQ ID NOs: 26 and 27 (antibody, V domains shown)
VH: EVQLQQSGTVLARPGASVKMSCKASGYTFTSYWVHWVKQRPGQGLEWIGAIYPGNIDASYNQKFKGKAKLTAVTSTSTAYMELSSLTNEDSAVYYCSYDYDAWFVYWGQGTLVTVSA
VL: DIQMTQSHKFMSTSVGDRVSITCKASQDVSTAVAWYQQKPGQSPTLLIYSASYRYTGVPDRFTGSGSGTDFTFTISSVQAEDLAVYYCQQHYFTPRTFGGGTKLELK
Consider B1, for which the “Reactivity by FACS” value in the assay with GPC3 [1] (293S cells expressing GPC3) and with GPC3 [1] (HepG2 X1 cells) was “react strongly” throughout. Besides, in the assay with biotinylated GPC3, the Epitope bin result is “different epitope bins”. Also, the “Binding by FACS” value with human GPC3 and with GPC3 [2] (setting [6]) was “did not show significant binding” each time.

B2: 7H1: anti-GPC3 monoclonal antibody; heavy and light chain variable regions SEQ ID NOs: 2 and 3 (antibody, V domains shown)
VH: QVQLQQSGPELVKPGASVKISCKASGYTFTDYYINWVKQKPGQGLEWIGWIYPGSGHTECNETFKGKATLTVDTSSSTAYMQLSSLTSEDTAVYFCTRGYYAPMGYFDYWGQGTTLTVSS
VL: DIQMTQSPSSLSASLGERVSLTCRASQEISGYLSWLQQKPDGTIKRLIYAASTLDSGVPKRFSGSRSGSDYSLTISGLESEDFADYYCLQYASYPYTFGGGTKLEIK
For the molecule B2, the “Reactivity by FACS” value with GPC3 [1] (293S cells expressing GPC3) and with GPC3 [1] (HepG2 X1 cells) was “react strongly” each time. Also, in the assay with biotinylated GPC3, the Epitope bin entry is “different epitope bins”. Further, the “Binding by Western blot” value in the assay with GPC3 [3] (amino acids 25 to 137 of human GPC3), with GPC3 [3] (amino acids 25 to 247 of human GPC3) and in the assay with GPC3 [3] (amino acids 25 to 358 of human GPC3) was “bind” each time. For the same molecule, the “Detection by Western blot” value with GPC3 [4], with rat GPC3, in the assay with mouse GPC3 and in the assay with cynomolgus monkey GPC3 was “detects” throughout. Besides, the “Binding by FACS” value with GPC3 [2] (setting [6]) is “bind”; in the assay with GPC3 [2] (amino acids 25 to 137 of human GPC3, transiently expressed on 293S cells), “bind”; with GPC3 [2] (amino acids 25 to 247 of human GPC3, transiently expressed on 293S cells), “bind”. The “Reactivity by IHC” value in the assay with GPC3 [5] (HepG2 cells), with GPC3 [5] (JHH cells), with GPC3 [5] (cells stably transfected with GPC3) and in the assay with GPC3 [5] (hepatic cancer tissue microarray) was “react strongly” throughout.

The record behind these values is patent US9926377B2, “Anti-GPC3 antibodies and immunoconjugates” (GENENTECH, INC., priority 2014, dated 2018).
